Several values for one entry are separate records, joined by “and”; a condition that tells them apart may be missing. Equal values may be shown once.
Columns and labels:
Type in all cases: in vivo, NOD/SCID mice
[1] = system: H2009 (αvβ6^+) xenografts; experiment: Small animal PET/CT imaging, H2009 tumor bearing mice; settings: for Tumor uptake: quantitative PET, mean ± s.d.; for Tumor uptake / Tumor/Lung: n = 3; for Tumor/Lung: ratio of PET uptakes
[2] = as above; settings: NOD/SCID, mouse, iv, total radioactivity
[3] = system: H460 (αvβ6^-) xenografts; experiment: Small animal PET/CT imaging, H460 tumor bearing mice; settings: H460 tumor bearing mice, quantitative PET, mean ± s.d., n = 3
[4] = as above; settings: NOD/SCID, mouse, iv, total radioactivity
[5] = H2009 tumor bearing mice, 1 h p.i.
[6] = H2009 tumor bearing mice, 4 h p.i.
[7] = H2009 tumor bearing mice, 24 h p.i.

## CC(C)C[C@H](NC(=O)[C@H](CCC(N)=O)NC(=O)[C@H](CCCNC(=N)N)NC(=O)[C@H](CC(C)C)NC(=O)[C@@H](NC(=O)[C@H](C)NC(=O)[C@H](CC(C)C)NC(=O)[C@H](CC(=O)O)NC(=O)CNC(=O)[C@@H](N)CCCNC(=N)N)[C@@H](C)O)C(=O)NCCOCCOCCOCCOCCOCCOCCOCCOCCOCCOCCOCCOCCC(=O)N[C@@H](CSC1CC(=O)N(CCC(=O)NCCCC[C@H](NC(=O)CCN2C(=O)CC(SC[C@H](NC(=O)CCOCCOCCOCCOCCOCCOCCOCCOCCOCCOCCOCCOCCNC(=O)[C@H](CC(C)C)NC(=O)[C@H](CCC(N)=O)NC(=O)[C@H](CCCNC(=N)N)NC(=O)[C@H](CC(C)C)NC(=O)[C@@H](NC(=O)[C@H](C)NC(=O)[C@H](CC(C)C)NC(=O)[C@H](CC(=O)O)NC(=O)CNC(=O)[C@@H](N)CCCNC(=N)N)[C@@H](C)O)C(N)=O)C2=O)C(=O)NCCC(=O)N[C@@H](CSC2CC(=O)N(CCNC(=O)CCC(C(=O)O)N3CCCN4CCN(CCCN(CC(=O)O)CC4)CC3)C2=O)C(N)=O)C1=O)C(N)=O (some centres unmarked) [^64Cu-D10, metal not drawn]
[1]; H2009 tumor bearing mice, 1 h, 4 h, 24 h p.i.
  increase of kidney uptake as compared to 64Cu-M10: ~6 fold
[1]; [5]
  Tumor uptake: 1.53 ± 0.15 %ID/g
  Tumor/Lung: 0.8 ± 0.25
[1]; [6]
  Tumor uptake: 1.2 ± 0.26 %ID/g
  Tumor/Lung: 1.2 ± 0.31
[1]; [7]
  Tumor uptake: 0.89 ± 0.26 %ID/g
  Tumor/Lung: 1.4 ± 0.34
[1]; H2009 tumor, all three time points (1 h, 4 h, 24 h p.i.)
  tumor uptake increase as compared to 64Cu-M10: ~3 fold
[2]; heart
  tissue uptake at 1 h: 1.26 ± 0.37 %ID/g
  tissue uptake at 4 h: 0.79 ± 0.27 %ID/g
  tissue uptake at 24 h: 0.42 ± 0.1 %ID/g
[2]; kidney
  tissue uptake at 1 h: 43.5 ± 1.8 %ID/g
  tissue uptake at 4 h: 39.3 ± 5.66 %ID/g
  tissue uptake at 24 h: 21.4 ± 0.57 %ID/g
[2]; liver
  tissue uptake at 1 h: 2 ± 0.1 %ID/g
  tissue uptake at 4 h: 1.56 ± 0.11 %ID/g
  tissue uptake at 24 h: 1.01 ± 0.14 %ID/g
[2]; lung
  tissue uptake at 1 h: 1.86 ± 0.2 %ID/g
  tissue uptake at 4 h: 0.99 ± 0.18 %ID/g
  tissue uptake at 24 h: 0.62 ± 0.23 %ID/g
[2]; muscle
  tissue uptake at 1 h: 0.8 ± 0.11 %ID/g
  tissue uptake at 4 h: 0.4 ± 0.03 %ID/g
  tissue uptake at 24 h: 0.27 ± 0.13 %ID/g
[3]; 1 h p.i.
  Tumor uptake: 0.86 ± 0.21 %ID/g
[3]; 4 h p.i.
  Tumor uptake: 0.52 ± 0.05 %ID/g
[3]; 24 h p.i.
  Tumor uptake: 0.39 ± 0.04 %ID/g
[4]; heart
  tissue uptake at 1 h: 1.41 ± 0.43 %ID/g
  tissue uptake at 4 h: 0.77 ± 0.09 %ID/g
  tissue uptake at 24 h: 0.47 ± 0.09 %ID/g
[4]; kidney
  tissue uptake at 1 h: 43.3 ± 5.4 %ID/g
  tissue uptake at 4 h: 50.1 ± 3.87 %ID/g
  tissue uptake at 24 h: 19.8 ± 2.38 %ID/g
[4]; liver
  tissue uptake at 1 h: 2.63 ± 0.92 %ID/g
  tissue uptake at 4 h: 2.3 ± 0.26 %ID/g
  tissue uptake at 24 h: 1.83 ± 0.15 %ID/g
[4]; lung
  tissue uptake at 1 h: 1.33 ± 0.3 %ID/g
  tissue uptake at 4 h: 0.77 ± 0.07 %ID/g
  tissue uptake at 24 h: 0.45 ± 0.17 %ID/g
[4]; muscle
  tissue uptake at 1 h: 0.75 ± 0.24 %ID/g
  tissue uptake at 4 h: 0.31 ± 0.06 %ID/g
  tissue uptake at 24 h: 0.33 ± 0.08 %ID/g

## CC(C)C[C@H](NC(=O)[C@H](CCC(N)=O)NC(=O)[C@H](CCCNC(=N)N)NC(=O)[C@H](CC(C)C)NC(=O)[C@@H](NC(=O)[C@H](C)NC(=O)[C@H](CC(C)C)NC(=O)[C@H](CC(=O)O)NC(=O)CNC(=O)[C@@H](N)CCCNC(=N)N)[C@@H](C)O)C(=O)NCCOCCOCCOCCOCCOCCOCCOCCOCCOCCOCCOCCOCCC(=O)N[C@@H](CSC1CC(=O)N(CCNC(=O)CCC(C(=O)O)N2CCCN3CCN(CCCN(CC(=O)O)CC3)CC2)C1=O)C(N)=O (some centres unmarked) [^64Cu-M10, metal not drawn]
[1]; [5]
  Tumor uptake: 0.55 ± 0.17 %ID/g
  Tumor/Lung: 0.83 ± 0.18
[1]; [6]
  Tumor uptake: 0.33 ± 0.11 %ID/g
  Tumor/Lung: 1.0 ± 0.15
[1]; [7]
  Tumor uptake: 0.28 ± 0.11 %ID/g
  Tumor/Lung: 1.86 ± 0.11
[2]; heart
  tissue uptake at 1 h: 1.02 ± 0.07 %ID/g
  tissue uptake at 4 h: 0.42 ± 0.06 %ID/g
  tissue uptake at 24 h: 0.16 ± 0.05 %ID/g
[2]; kidney
  tissue uptake at 1 h: 6.83 ± 0.35 %ID/g
  tissue uptake at 4 h: 6.23 ± 0.32 %ID/g
  tissue uptake at 24 h: 3.5 ± 0.36 %ID/g
[2]; liver
  tissue uptake at 1 h: 2.03 ± 0.23 %ID/g
  tissue uptake at 4 h: 1.53 ± 0.21 %ID/g
  tissue uptake at 24 h: 1.3 ± 0.1 %ID/g
[2]; lung
  tissue uptake at 1 h: 0.66 ± 0.08 %ID/g
  tissue uptake at 4 h: 0.33 ± 0.11 %ID/g
  tissue uptake at 24 h: 0.15 ± 0.04 %ID/g
[2]; muscle
  tissue uptake at 1 h: 0.3 ± 0.02 %ID/g
  tissue uptake at 4 h: 0.12 ± 0.02 %ID/g
  tissue uptake at 24 h: 0.14 ± 0.02 %ID/g
[3]; 1 h p.i.
  Tumor uptake: 0.34 ± 0.05 %ID/g
[3]; 4 h p.i.
  Tumor uptake: 0.24 ± 0.01 %ID/g
[3]; 24 h p.i.
  Tumor uptake: 0.19 ± 0.01 %ID/g
[4]; heart
  tissue uptake at 1 h: 1.02 ± 0.17 %ID/g
  tissue uptake at 4 h: 0.65 ± 0.12 %ID/g
  tissue uptake at 24 h: 0.33 ± 0.03 %ID/g
[4]; kidney
  tissue uptake at 1 h: 14 ± 2.4 %ID/g
  tissue uptake at 4 h: 12.5 ± 2.33 %ID/g
  tissue uptake at 24 h: 5.97 ± 1.01 %ID/g
[4]; liver
  tissue uptake at 1 h: 0.93 ± 0.12 %ID/g
  tissue uptake at 4 h: 0.77 ± 0.06 %ID/g
  tissue uptake at 24 h: 0.43 ± 0.05 %ID/g
[4]; lung
  tissue uptake at 1 h: 0.55 ± 0.09 %ID/g
  tissue uptake at 4 h: 0.34 ± 0.07 %ID/g
  tissue uptake at 24 h: 0.18 ± 0.02 %ID/g
[4]; muscle
  tissue uptake at 1 h: 0.15 ± 0.07 %ID/g
  tissue uptake at 4 h: 0.11 ± 0.04 %ID/g
  tissue uptake at 24 h: 0.1 ± 0.03 %ID/g

## N=C(N)NCCC[C@@H]1NC(=O)[C@H](CCCCNC(=O)CCC(C(=O)O)N2CCCN3CCN(CCCN(C(CCC(=O)NCCCC[C@@H]4NC(=O)[C@@H](Cc5ccc(O)cc5)NC(=O)[C@H](CC(=O)O)NC(=O)CNC(=O)[C@H](CCCNC(=N)N)NC4=O)C(=O)O)CC3)CC2)NC(=O)[C@@H](Cc2ccc(O)cc2)NC(=O)[C@H](CC(=O)O)NC(=O)CNC1=O (some centres unmarked) [^64Cu-CB-TE2A-(c(RGDyK))2, metal not drawn, reference compound]
[1]; [5]
  Tumor uptake: 1.58 ± 0.13 %ID/g
[1]; [6]
  Tumor uptake: 1.07 ± 0.21 %ID/g
[1]; [7]
  Tumor uptake: 0.7 %ID/g and 0.70 ± 0.29 %ID/g
[2]; heart
  tissue uptake at 1 h: 1.67 ± 0.13 %ID/g
  tissue uptake at 4 h: 0.58 ± 0.13 %ID/g
  tissue uptake at 24 h: 0.4 ± 0.12 %ID/g
[2]; kidney
  tissue uptake at 1 h: 3.43 ± 0.25 %ID/g
  tissue uptake at 4 h: 1.35 ± 0.54 %ID/g
  tissue uptake at 24 h: 0.93 ± 0.09 %ID/g
[2]; liver
  tissue uptake at 1 h: 2.56 ± 0.41 %ID/g
  tissue uptake at 4 h: 1.97 ± 0.19 %ID/g
  tissue uptake at 24 h: 1.65 ± 0.35 %ID/g
[2]; lung
  tissue uptake at 1 h: 0.7 ± 0.05 %ID/g
  tissue uptake at 4 h: 0.61 ± 0.17 %ID/g
  tissue uptake at 24 h: 0.39 ± 0.18 %ID/g
[2]; muscle
  tissue uptake at 1 h: 0.41 ± 0.04 %ID/g
  tissue uptake at 4 h: 0.26 ± 0.12 %ID/g
  tissue uptake at 24 h: 0.24 ± 0.08 %ID/g
[3]; 1 h p.i.
  Tumor uptake: 1.64 ± 0.20 %ID/g
[3]; 4 h p.i.
  Tumor uptake: 1.09 ± 0.24 %ID/g
[3]; 24 h p.i.
  Tumor uptake: 0.7 %ID/g and 0.72 ± 0.10 %ID/g
[4]; heart
  tissue uptake at 1 h: 1.9 ± 0.72 %ID/g
  tissue uptake at 4 h: 0.54 ± 0.26 %ID/g
  tissue uptake at 24 h: 0.42 ± 0.05 %ID/g
[4]; kidney
  tissue uptake at 1 h: 4.33 ± 1 %ID/g
  tissue uptake at 4 h: 1.8 ± 0.57 %ID/g
  tissue uptake at 24 h: 1.2 ± 0.14 %ID/g
[4]; liver
  tissue uptake at 1 h: 2.13 ± 0.25 %ID/g
  tissue uptake at 4 h: 1.61 ± 0.41 %ID/g
  tissue uptake at 24 h: 2.05 ± 0.07 %ID/g
[4]; lung
  tissue uptake at 1 h: 0.68 ± 0.02 %ID/g
  tissue uptake at 4 h: 0.48 ± 0.06 %ID/g
  tissue uptake at 24 h: 0.3 ± 0.01 %ID/g
[4]; muscle
  tissue uptake at 1 h: 0.39 ± 0.06 %ID/g
  tissue uptake at 4 h: 0.31 ± 0.04 %ID/g
  tissue uptake at 24 h: 0.27 ± 0.03 %ID/g
